# From patent publication US20100183625A1 (published 2010)
# B1: M161-C11 (antibody, V domains shown)
# VH: EVQLLESGGGLVQPGGSLRLSCAASGFTFSDYAMKWVRQAPGKGLEWVSSISSSGGVTQYADSVKGRFTISRDNSKNTLYLQMNSLRAEDTAVYYCAREEDYSSSWYSRRFDYYYGMDVWGQGTTVTVSS
# VL: QSALTQPPSVSVSPGQTASITCSGDKLGDKYVSWYQQRPGQSPVLVIYQDTKRPSGIPERFSGSNSGNTATLTISGTQAVDEADYYCQAWDSSTYVFGGGTKVTVL
# B2: M162-A04 (antibody, V domains shown)
# VH: EVQLLESGGGLVQPGGSLRLSCAASGFTFSHYIMMWVRQAPGKGLEWVSGIYSSGGITVYADSVKGRFTISRDNSKNTLYLQMNSLRAEDTAVYYCAYRRTGIPRRDAFDIWGQGTMVTVSS
# VL: DIQMTQSPSTLSASVGDRVTITCRASQSISSWLAWYQQKPGKAPNLLIYKASTLESGVPSRFSGSGSGTEFTLTISSLQPDDFATYYCQQYNTYWTFGQGTKVEIK
# B3: M8-A09 (antibody, V domains shown)
# VH: EVQLLESGGGLVQPGGSLRLSCAASGFTFSTYFMLWVRQAPGKGLEWVSSIYPSGGNTVYADSVKGRFTISRDNSKNTLYLQMNSLRAEDTAVYYCARAASPVRNYYYYGMDVWGQGTTVTVSS
# VL: QCELTQPPSESVSPGQTANITCSGDKLGNKYAYWYQQKPGQSPVLVIYQDNNRPSGIPERFSGSNSGNTATLTISGTQAIDEANYYCQAWDSRTVVFGGGTKLTVL
# B4: M41-A11 (antibody, V domains shown)
# VH: EVQLLESGGGLVQPGGSLRLSCAASGFTFSHYRMSWVRQAPGKGLEWVSSIYPSGGRTVYADSVKGRFTISRDNSKNTLYLQMNSLRAEDTAVYYCAKDKFEWRLLFRGIGNDAFDIWGQGTMVTVSS
# VL: QSVLTQPPSVSVSPGQTASITCSGDKLGDKYTSWYQQRPGQSPVLVIYQDIKRPSGIPERFSGSNSGNTATLTISGTQAMDEADYYCQAWDSPNARVFGSGTKVTVL
# B5: M145-D11 (antibody, V domains shown)
# VH: B4 VH
# VL: B4 VL
# B6: M35-G04 (antibody, V domains shown)
# VH: EVQLLESGGGLVQPGGSLRLSCAASGFTFSYYHMSWVRQAPGKGLEWVSVISPSGGSTKYADSVKGRFTISRDNSKNTLYLQMNSLRAEDTAVYYCARGGSSDYAWGSYRRPYYFDYWGQGTLVTVSS
# VL: DIQMTQSPATLSLSPGERATLSCRASQSVSSYLAWYQQKPGQAPRLLIYDASNRATGIPARFSGSGSGTDFTLTISSLEPEDFAVYYCQQRSNWPRGFTFGPGTKVDIK
# B7: M145-D01 (antibody, V domains shown)
# VH: B6 VH
# VL: B6 VL
# B8: M160-G12 (antibody, V domains shown)
# VH: EVQLLESGGGLVQPGGSLRLSCAASGFTFSHYLMTWVRQAPGKGLEWVSYISPSGGHTIYADSVKGRFTISRDNSKNTLYLQMNSLRAEDTAVYYCARVARGIAARSRTSYFDYWGQGTLVTVSS
# VL: DIQMTQSPSFLSASVGDRVTITCRASQGISSYLAWYQQKPGKAPKLLIYAASTLQSGVPSRFSGSGSGTEFTLTISSLQPEDFATYYCQQLNSYPLTFGGGTKVEIK
# B9: M110-C12 (antibody, V domains shown)
# VH: EVQLLESGGGLVQPGGSLRLSCAASGFTFSYYEMDWVRQAPGKGLEWVSGISSSGGHTAYADSVKGRFTISRDNSKNTLYLQMNSLRAEDTATYYCARERRSSSRARYYYGMDVWGQGTTVTVSS
# VL: DIQMTQSPLSLSVTPGEPASISCRSSLSLLHSNGYNYLDWYVQRPGQSPQLLMYLSSTRASGVPDRFSGSGSGTDFTLEISRVEAEDVGVYYCMQPLETPPTFGGGTKVEIK
# B10: M146-E12 (antibody, V domains shown)
# VH: EVQLLESGGGLVQPGGSLRLSCAASGFTFSRYIMHWVRQAPGKGLEWVSSISPSGGLTSYADSVKGRFTISRDNSKNTLYLQMNSLRAEDTAVYYCAREFENAYHYYYYGMDVWGQGTTVTVSS
# VL: DIQMTQSPSSLSASVGDRVTITCRASGDIGNALGWYQQKPGKAPRLLISDASTLQSGVPLRFSGSGSGTEFTLTISSLQPEDFATYYCLQGYNYPRTFGQGTKLEIR
# B11: M73-D06 (antibody, V domains shown)
# VH: EVQLLESGGGLVQPGGSLRLSCAASGFTFSRYEMYWVRQAPGKGLEWVSSISSSGGPTAYADSVKGRFTISRDNSKNTLYLQMNSLRAEDTAMYYCAKGTPKWELLLRSIYIENAFDIWSQGTMVTVSS
# VL: QSELTQPPSASETPSQRVTISCSGSSSNIGSNTVSWFQQLPGSAPRLLIYNDHRRPSGVPDRFSGSKSGTSASLVISGLQSQDEADYYCSAWDDSLNGVVFGGGTKLTVL
# B12: M38-F02 (antibody, V domains shown)
# VH: EVQLLESGGGLVQPGGSLRLSCAASGFTFSYYMMVWVRQAPGKGLEWVSYIYSSGGHTVYADSVKGRFTISRDNSKNTLYLQMNSLRAEDTAVYYCARDLFLYDFWSKGAFDIWGQGTMVTVSS
# VL: QSVLTQPPSVSVSPSQTASITCSGEKLGDKYVSWYQQKPGQSPSLVICEDSRRPSGIPERFSGSNSGNTATLTISGAQPMDEADYYCQAWDSSTAIFGPGTKVTVL
# B13: M7-E07 (antibody, V domains shown)
# VH: EVQLLESGGGLVQPGGSLRLSCAASGFTFSWYLMIWVRQAPGKGLEWVSYIYPSGGFTYYADSVKGRFTISRDNSKNTLYLQMNSLRAEDMAVYYCARTEGPLSWGYGMDVWGQGTTVTVSS
# VL: not shown
# B14: M27-E05 (antibody, V domains shown)
# VH: B13 VH
# VL: not shown
# B15: M152-A12 (antibody, V domains shown)
# VH: EVQLLESGGGLVQPGGSLRLSCAASGFTFSPYFMGWVRQAPGKGLEWVSGIGPSGGSTTYADSVKGRFTISRDNSKNTLYLQMNSLRAEDTAVYYCAREGPPYSSGWYRGLRQYHFDYWGQGTLVTVSS
# VL: DIQMTQSPSSLSASVGDRVTITCRASQSISSYLSWYQQRPGKAPNLLIYAASSLQSGVPSRFSGSGSGTDFTLTISSLQPEDFATYYCQQSISIPRTFGQGTKVEVK
# B16: M142-H08 (antibody, V domains shown)
# VH: EVQLLESGGGLVQPGGSLRLSCAASGFTFSAYSMIWVRQAPGKGLEWVSYIRPSGGRTTYADSVKGRFTISRDNSKNTLYLQMNSLRAEDTAVYYCARGGLLLWFRELKSNYFDYWGQGTLVTVSS
# VL: DIQMTQSPSSLSAFVGDRVTITCRASQPIDNYLNWYHQKPGKAPKLLIYAASRLQSGVPSRLSGSGFGTDFTLTISSLQPEDFGNYYCQQSYTVPYTFGGGTKVEIR
# Target: T1, human plasma kallikrein (human, UniProt P03952 20-390; P03952 391-638)
# T1 construct: also called pKal; human pKal
# T1 sequence (P03952 20-390, chain 1 of 2): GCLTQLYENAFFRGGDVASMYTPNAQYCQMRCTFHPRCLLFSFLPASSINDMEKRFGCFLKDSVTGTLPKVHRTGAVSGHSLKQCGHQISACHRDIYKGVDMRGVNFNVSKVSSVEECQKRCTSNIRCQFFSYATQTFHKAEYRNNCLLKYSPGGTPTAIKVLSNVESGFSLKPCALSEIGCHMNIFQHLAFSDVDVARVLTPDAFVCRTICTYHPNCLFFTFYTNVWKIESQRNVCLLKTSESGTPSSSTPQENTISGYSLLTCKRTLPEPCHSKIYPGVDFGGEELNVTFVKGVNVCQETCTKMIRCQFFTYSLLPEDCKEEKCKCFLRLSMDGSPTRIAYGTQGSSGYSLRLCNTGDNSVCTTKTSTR
# T1 sequence (P03952 391-638, chain 2 of 2): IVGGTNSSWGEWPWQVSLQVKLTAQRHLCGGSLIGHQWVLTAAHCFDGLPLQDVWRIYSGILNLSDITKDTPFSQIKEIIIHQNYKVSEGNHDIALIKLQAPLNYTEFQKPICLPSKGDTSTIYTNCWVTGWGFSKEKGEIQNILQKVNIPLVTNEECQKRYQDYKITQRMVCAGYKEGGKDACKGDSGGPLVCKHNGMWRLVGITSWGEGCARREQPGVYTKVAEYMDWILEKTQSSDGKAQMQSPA
# Experiment: ELISA; signal on biotinylated plasma kallikrein divided by signal on streptavidin background
# Description: Abbreviations used: “T/B” is the ELISA signal obtained using of the “target” (biotinylated plasma kallikrein) divided by the ELISA signal of the “background” (streptavidin); both of which were coated on microtiter plates. “nd” is not determined. The symbol “q” refers to the amber suppressible stop codon (TAG), which is translated as glutamine (Q) in strains of E. coli such as the TG1 cells that were used to express the Fab fragments.
row,ELISA (T/B) [T/B ratio],Binder
1,41.8,B1
2,11.4,B2
3,5.4,B3
4,28,B4
5,40,B5
6,11.1,B6
7,6.2,B7
8,38.3,B8
9,2.4,B9
10,40.6,B10
11,4,B11
12,33.5,B12
13,45.7,B13
14,41.3,B14
15,19,B15
16,29.9,B16
